# Target: human hisTRIM7-PRYSPRY (human) (UniProt Q9C029)
# Assay: ITC
row,Substance,Kd
1,ac-LLQ (peptide),39 µM
2,dipeptide LQ,200 µM

# — PMC9394474
